Values of other authors in patent publication US20100209353A1, “TUMOR TARGETING PROTEIN CONJUGATE AND A METHOD FOR PREPARING THE SAME” (KOREA INSTITUTE OF SCIENCE AND TECHNOLOGY, priority 2009, published 2010).

Conditions: conventional albumin

Q: Which particle size does the source give for albumin here?
A: The particle size was 2˜5 nm.
